Measured values as given in article PMC5021521, “Coordinated recruitment of Spir actin nucleators and myosin V motors to Rab11 vesicle membranes” (eLife, 2016).

How the values were obtained:
GST-Rab11a-Q70L = assay: GST-pulldown from HEK293 lysates; assay type: binding; details: N = 2; for pulldown by GST-Rab11a-Q70L in words, with Q1753R mutant MyoVa: HEK293 lysates with GFP-MyoVa-Q1753R in place of GFP-MyoVa-FL
Protocol: HEK293 cells were co-transfected with expression vectors encoding Myc-Spir-2-FL, mStrawberry-FMN2-FH2-FSI, eGFP-MyoVa-D-FL and eGFP-MyoVa-D-Q1753R, respectively. 24 hr post transfection, cells were lysed in lysis buffer (25 mM Tris-HCl pH 7.4, 150 mM NaCl, 5 mM MgCl2, 10% (v/v) glycerol, 0.1% (v/v) Nonidet P-40, 1 mM PMSF, protease inhibitor cocktail) and centrifuged at 20,000 x g, 4°C, 20 min to remove insoluble debris. For GST-pulldown assays 65 µg GST-Rab11a-Q70L protein (25 µg GST control) was coupled to GSH-Sepharose 4B beads (1:1 suspension) for 1 hr, 4°C on a rotating wheel. Beads were washed twice with pulldown buffer (25 mM Tris-HCl pH 7.4, 150 mM NaCl, 5 mM MgCl2, 10% (v/v) glycerol, 0.1% (v/v) Nonidet P-40) and subsequently incubated with the cell lysates for 2 hr at 4°C on a rotating wheel. Beads were washed four times with pulldown buffer and bound proteins were eluted with 1x Laemmli buffer and denatured at 95°C for 10 min, then were analyzed by immunoblotting.

GFP-MyoVb-GTD = assay: Co-immunoprecipitation from HEK293 cells; assay type: binding, Homo sapiens; details: anti-Myc co-IP, HEK293, immunoblot
Protocol: HEK293 cells were transfected with expression vectors encoding Myc-tagged Spir proteins and GFP-tagged myosin Va and myosin Vb fragments. 48 hr post transfection, cells were lysed in lysis buffer (25 mM Tris-HCl pH 7.4, 150 mM NaCl, 5 mM MgCl2, 10% (v/v) glycerol, 0.1% (v/v) Nonidet P-40, 1 mM Phenylmethylsulfonylfluorid (PMSF; Sigma-Aldrich), protease inhibitor cocktail (complete mini, EDTA-free; Roche, Penzberg, Germany)) and centrifuged at 20,000 x g, 4°C, 20 min to remove insoluble debris. The clarified supernatant was incubated with 4 µg anti-c-Myc antibody (9E10, mouse monoclonal; Santa Cruz Biotechnology; RRID: AB_627268) for 1 hr on ice. Subsequently, 40 µl Protein G-Agarose beads (1:1 suspension; Roche) were added and incubated for 2 hr at 4°C on a rotating wheel. Beads were washed with pulldown buffer (25 mM Tris-HCl pH 7.4, 150 mM NaCl, 5 mM MgCl2, 10% (v/v) glycerol, 0.1% (v/v) Nonidet P-40). Bound proteins were eluted with 1x Laemmli buffer and denatured for 10 min at 95°C, then analyzed by immunoblotting.

HeLa cells = assay: Subcellular localization by fluorescence microscopy; assay type: cell-based
Protocol: (§1) HeLa cells were seeded on microscope cover glasses and transfected with Myc-epitope-tagged Spir-2 proteins and fluorescently-tagged MyoV and Rab11 proteins as described above. Cells were fixed with paraformaldehyde (3.7% in 1x PBS) for 20 min at 4°C and subsequently permeabilized using 0.2% Triton X-100 (in 1x PBS) for 3.5 min, room temperature. Cells were incubated with anti-c-Myc antibody (9E10, mouse monoclonal, 2 µg/ml, Santa Cruz Biotechnology; RRID: AB_627268) for 1 hr at room temperature and conjugated anti-mouse secondary antibodies (Cy5; from donkey, 3.25 µg/ml, Dianova (RRID: AB_2340820) and TRITC; from donkey, 3.125 µg/ml, Dianova (RRID: AB_2340767)) for 1 hr at room temperature avoiding exposure to light. Finally, cells were mounted on microscope slides with Mowiol and analyzed with a Leica AF6000LX fluorescence microscope, equipped with a Leica HCX PL APO 63x/1.3 GLYC objective and a Leica DFC350 FX digital camera (1392 × 1040 pixels, 6.45 × 6.45 µm pixel size). 3D stacks were recorded and processed with the Leica deconvolution software module. In case of the MyoVa autoregulation/activation experiments, we quantified the MyoVa expression levels. […] In order to clearly distinguish between vesicular and cytoplasmic MyoVa localization, we imaged either high or low expressing cells and determined the sum of pixel gray values per cell as a measure for the MyoVa expression levels. Based on that, we only used cells for the autoregulation analysis having a sum of pixel gray values less than 20 × 10^6 for the expression of GFP-MyoVa-D-FL. Images were recorded using the Leica LASX software and further processed with Adobe Photoshop and subsequently assembled with Adobe Illustrator.

mStrawberry-Rab11a = assay: Colocalization with Rab11 in HeLa cells, Pearson's correlation coefficient; assay type: cell-based, Mus musculus
Protocol: as §1
The extent of colocalization of Rab11, Spir-2 and MyoVa was analyzed using the ImageJ (V2.0.0) plug-in Coloc 2. Here, the colocalization rate is indicated by the Pearson’s Correlation Coefficient (PCC) as a statistical measure to unravel a linear correlation between the intensity of different fluorescent signals. […] To take the noise of each image into account and to gain an objective evaluation of PCC significance, a Costes significance test was performed. Therefore, the pixels in one image were scrambled randomly and the correlation with the other (unscrambled) image was measured. […] Statistical data analysis was performed using SPSS 22 (IBM, Armonk, NY, USA).

GFP-MyoVa-Q1753R: eGFP-tagged full-length MyoVa with Q1753R mutation, which disrupts interaction with Rab11
pulldown by GST-Rab11a-Q70L in words, with Q1753R mutant MyoVa (GST-Rab11a-Q70L): but not the GFP-MyoVa-Q1753R mutant

Straw-FMN2-FH2-FSI: mStrawberry-tagged C-terminal formin-2, aa 1135 - 1578
pulldown by GST-Rab11a-Q70L in words (GST-Rab11a-Q70L; HEK293 lysates over-expressing Myc-Spir-2, Straw-FMN2-FH2-FSI and GFP-MyoVa-FL): able to pull down
pulldown by GST-Rab11a-Q70L in words, with Q1753R mutant MyoVa (GST-Rab11a-Q70L): Only faint

B1: 1 423: N-terminal Spir-2 deletion mutant (protein)
chain: ARAGSCGGAAAGAGRPEPWELSLEEVLKAYEQPLNEEQAWAVCFQGCRGLRGSPGRRLRDTGDLLLRGDGSVGAREPEAAEPATMVVPLASSEAQTVQSLGFAIYRALDWGLDESEERELSPQLERLIDLMANNDSEDSGCGAADEGYGGPEEEEEAEGVPRSVRTFAQAMRLCAARLTDPRGAQAHYQAVCRALFVETLELRAFLARVREAKEMLQKLREDEPHLETPRAELDSLGHTDWARLWVQLMRELRRGVKLKKVQEQEFNPLPTEFQLTPFEMLMQDIRARNYKLRKVMVDGDIPPRVKKDAHELILDFIRSRPPLKQVSERRLRPLPPKQRSLHEKILEEIKQERRLRPVRGEGWAARGFGSLPCILNACSGDAKSTSCINLSVTDAGGSAQRPRPRVLLKAPTLAEMEEMNTS
modifications: left off: Myc epitope, end not stated, kept
notes: N-terminal Spir-2 deletion mutant
co-precipitation / interaction with MyoVb-GTD in words (GFP-MyoVb-GTD): show myosin V co-precipitation

B2: Myc-Spir-2-KIND-WH2: Myc-hs-Spir2-KIND-WH2 aa 2 - 410 (protein)
chain: ARAGSCGGAAAGAGRPEPWELSLEEVLKAYEQPLNEEQAWAVCFQGCRGLRGSPGRRLRDTGDLLLRGDGSVGAREPEAAEPATMVVPLASSEAQTVQSLGFAIYRALDWGLDESEERELSPQLERLIDLMANNDSEDSGCGAADEGYGGPEEEEEAEGVPRSVRTFAQAMRLCAARLTDPRGAQAHYQAVCRALFVETLELRAFLARVREAKEMLQKLREDEPHLETPRAELDSLGHTDWARLWVQLMRELRRGVKLKKVQEQEFNPLPTEFQLTPFEMLMQDIRARNYKLRKVMVDGDIPPRVKKDAHELILDFIRSRPPLKQVSERRLRPLPPKQRSLHEKILEEIKQERRLRPVRGEGWAARGFGSLPCILNACSGDAKSTSCINLSVTDAGGSAQRPRPRVLLK
modifications: left off: Myc epitope, end not stated, kept
subcellular localization in words (HeLa cells; co-expression of eGFP-MyoVa-FL and N-terminal Spir-2 fragment): both cytosolic
subcellular localization in words (HeLa cells; single expression): even cytoplasmic and nuclear localization

B3: Spir-1: Myc-hs-Spir1 aa 2 - 757, full-length (protein)
chain: MANTVEADGSKDEGYEAADEGPEDEDGEKRSISAIRSYQDVMKICAAHLPTESEAPNHYQAVCRALFAETMELHTFLTKIKSAKENLKKIQEMEKGDESSTDLEDLKNADWARFWVQVMRDLRNGVKLKKVQQRQYNPLPIEYQLTPYEMLMDDIRCKRYTLRKVMVNGDVPPRLKKSAHEVILDFIRSRPPLNPVSARKLKPTPPRPRSLHERILEEIKAERKLRPVSPEEIRRSRLVRPLSMSHSFDLSDVTTPESPKNVGESSMVNGGLTSQTKENGLSAAQQGSAQRKRLLKAPTLAELDSSDSEEEKSLHKSTSSSSASPSLYEDPVLEAMCSRKKPPKFLPISSTPQPERRQPPQRRHSIEKETPTNVRQFLPPSRQSSRSLEEFCYPVECLALTVEEVMHIRQVLVKAELEKYQQYKDVYTALKKGKLCFCCRTRRFSFFTWSYTCQFCKRPVCSQCCKKMRLPSKPYSTLPIFSLGPSALQRGESCSRSEKPSTSHHRPLRSIARFSTKSRSVDKSDEELQFPKELMEDWSTMEVCVDCKKFISEIISSSRRSLVLANKRARLKRKTQSFYMSSAGPSEYCPSERTINEI
co-precipitation / interaction with MyoVb-GTD in words (GFP-MyoVb-GTD): did interact with the GFP-MyoVb-GTD

B4: Myc-Spir2-SB-FYVE: Myc-hs-Spir2-SB-FYVE aa 438 - 714, lacks the MyoV binding motif (protein)
chain: DRSFSEHDLAQLRSEVASGLQSATHPPGGTEPPRPRAGSAHVWRPGSRDQGTCPASVSDPSHPLLSNRGSSGDRPEASMTPDAKHLWLEFSHPVESLALTVEEVMDVRRVLVKAEMEKFLQNKELFSSLKKGKICCCCRAKFPLFSWPPSCLFCKRAVCTSCSIKMKMPSKKFGHIPVYTLGFESPQRVSAAKTAPIQRRDIFQSLQGPQWQSVEEAFPHIYSHGCVLKDVCSECTSFVADVVRSSRKSVDVLNTTPRRSRQTQSLYIPNTRTLDFK
modifications: left off: Myc epitope, end not stated, kept
PCC (mStrawberry-Rab11a; GFP-MyoVa-CC-GTD + mStraw-Rab11 + Myc-Spir2-SB-FYVE (first block, r34), cell 1): 0.63
PCC (mStrawberry-Rab11a; GFP-MyoVa-CC-GTD + mStraw-Rab11 + Myc-Spir2-SB-FYVE (first block, r34), cell 2): 0.74
PCC (mStrawberry-Rab11a; GFP-MyoVa-CC-GTD + mStraw-Rab11 + Myc-Spir2-SB-FYVE (first block, r34), cell 3): 0.59
PCC (mStrawberry-Rab11a; GFP-MyoVa-CC-GTD + mStraw-Rab11 + Myc-Spir2-SB-FYVE (first block, r34), cell 4): 0.23
Pearson's correlation coefficient (PCC), mean (mStrawberry-Rab11a; GFP-MyoVa-CC-GTD + mStraw-Rab11 + Myc-Spir2-SB-FYVE (first block, r34), mean of 4 cells): 0.5475
colocalization with Rab11 in words (mStrawberry-Rab11a; co-expression of Spir-2-SB-FYVE, MyoVa-CC-GTD and Rab11a, HeLa cells): significant reduction

B5: 398 714: C-terminal Spir-2 deletion mutant (protein)
chain: GSAQRPRPRVLLKAPTLAEMEEMNTSEEEESPCGEVTLKRDRSFSEHDLAQLRSEVASGLQSATHPPGGTEPPRPRAGSAHVWRPGSRDQGTCPASVSDPSHPLLSNRGSSGDRPEASMTPDAKHLWLEFSHPVESLALTVEEVMDVRRVLVKAEMEKFLQNKELFSSLKKGKICCCCRAKFPLFSWPPSCLFCKRAVCTSCSIKMKMPSKKFGHIPVYTLGFESPQRVSAAKTAPIQRRDIFQSLQGPQWQSVEEAFPHIYSHGCVLKDVCSECTSFVADVVRSSRKSVDVLNTTPRRSRQTQSLYIPNTRTLDFK
modifications: left off: Myc epitope, end not stated, kept
notes: C-terminal Spir-2 deletion mutant
co-precipitation / interaction with MyoVb-GTD in words (GFP-MyoVb-GTD): show myosin V co-precipitation
